Usually Kd stands for the equilibrium constant for the complex coming apart.

Holding throughout (assay): EMSA
(Mobility shift assays separate free from complexed probe on a gel.)

The target in data set [1] is T1, Δ70-POT1aC;TPP1 (mouse? (POT1a part); RPA70 organism not …, UniProt Q8VEE4;Q5EE38 191-623+Q91WC1:149-640;1-416, internal_change|).
Data set [2] has as its target T2, POT1a;TPP1 (mouse;mouse?, UniProt Q91WC1;Q5EE38 1-640;1-416, |).
T2 sequence 1: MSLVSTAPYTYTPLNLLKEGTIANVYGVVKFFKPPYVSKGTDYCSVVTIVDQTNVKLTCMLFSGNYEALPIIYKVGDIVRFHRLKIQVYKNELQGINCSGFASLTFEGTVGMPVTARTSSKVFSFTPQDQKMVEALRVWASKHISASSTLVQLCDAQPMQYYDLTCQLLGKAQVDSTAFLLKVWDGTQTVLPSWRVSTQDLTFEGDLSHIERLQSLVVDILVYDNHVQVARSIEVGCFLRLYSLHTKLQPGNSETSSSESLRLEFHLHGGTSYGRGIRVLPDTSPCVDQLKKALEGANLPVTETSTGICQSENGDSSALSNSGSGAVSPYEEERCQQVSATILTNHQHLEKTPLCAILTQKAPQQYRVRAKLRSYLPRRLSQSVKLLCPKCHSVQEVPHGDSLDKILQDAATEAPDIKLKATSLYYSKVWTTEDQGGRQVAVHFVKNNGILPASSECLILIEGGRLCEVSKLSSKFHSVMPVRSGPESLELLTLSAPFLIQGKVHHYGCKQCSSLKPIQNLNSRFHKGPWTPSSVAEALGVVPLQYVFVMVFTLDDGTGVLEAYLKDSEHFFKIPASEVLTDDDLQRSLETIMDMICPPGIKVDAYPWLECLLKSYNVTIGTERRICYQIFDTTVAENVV
T2 sequence 2: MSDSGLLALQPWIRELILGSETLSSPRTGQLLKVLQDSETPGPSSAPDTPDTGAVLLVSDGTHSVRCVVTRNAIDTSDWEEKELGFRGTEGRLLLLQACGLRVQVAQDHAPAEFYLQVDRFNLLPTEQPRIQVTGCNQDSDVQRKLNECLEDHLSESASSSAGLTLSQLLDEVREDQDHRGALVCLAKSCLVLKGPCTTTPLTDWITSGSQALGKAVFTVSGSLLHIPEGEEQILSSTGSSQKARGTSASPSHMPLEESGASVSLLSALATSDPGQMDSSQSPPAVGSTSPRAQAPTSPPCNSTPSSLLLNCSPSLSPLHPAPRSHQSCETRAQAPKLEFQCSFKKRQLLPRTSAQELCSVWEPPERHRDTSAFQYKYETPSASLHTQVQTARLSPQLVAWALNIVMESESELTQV

Data set [3] addresses T1, Δ70-POT1aC;TPP1. The source holds these as a separate data set.
Data set [4] has as its target T2, POT1a;TPP1. This is another data set of the same source.

Consider ATGCGACTCGAGCTAGATGATGTCTTCTGCAATCA (ssDNA) [Scr35], for which the binding result with Δ70-POT1aC;TPP1 [1] is listed as “binds”; with POT1a;TPP1 [2], “no binding”.
With TTAGGGTTAGGGTTAGGGTTAGGGTTAGGGTTAG (ssDNA) [Telo34], the Kd in the data set with Δ70-POT1aC;TPP1 [3] and with POT1a;TPP1 [4] was around 500 pM in each case.

For the origin of these results see paper doi:10.1101/354985.
